From publication PMC8037807, “The Effect of Oxidized Dopamine on the Structure and Molecular Chaperone Function of the Small Heat-Shock Proteins, αB-Crystallin and Hsp27” (International Journal of Molecular Sciences, 2021)

Experiments:
[1] = biological target: the molecule itself; experiment: cross-linking; 15 μM αBc or Hsp27 incubated with 15 or 75 μM DA in 50 mM phosphate, 150 mM NaCl, pH 7.4, 24 h, 37 °C, aerobic; excess DAox removed (10 kDa filter); SDS-PAGE with DTT and boiling
[2] = biological target: the molecule itself; experiment: negative-stain transmission electron microscopy; 30 μM αBc or Hsp27 incubated with 0 or 150 μM DAox; particle diameters measured
[3] = biological target: the molecule itself; experiment: cross-linking; lysine-dimethylated and non-methylated sHsps reacted with a 0, 1, 5, 7.5, 10 or 20 molar excess of DA, 37 °C, 24 h, 50 mM phosphate buffer, pH 7.4; SDS-PAGE, monomer band quantified

B1: oxidized dopamine-modified αB-crystallin (natural protein, human, UniProt P02511 1-175, looked up)
chain: MDIAIHHPWIRRPFFPFHSPSRLFDQFFGEHLLESDLFPTSTSLSPFYLRPPSFLRAPSWFDTGLSEMRLEKDRFSVNLDVKHFSPEELKVKVLGDVIEVHGKHEERQDEHGFISREFHRKYRIPADVDPLTITSSLSSDGVLTVNGPRKQVSGPERTIPITREEKPAVTAAPKK
modifications: modified and covalently cross-linked by oxidized dopamine (DAox); lysine residues involved in the cross-links; sites not mapped
notes: αB-crystallin (HspB5), human small heat-shock protein; monomeric subunit mass 20.2 kDa; same protein as m1; Made at several molar ratios of αBc to DA (1:1, 1:5, 1:10, 1:20, 1:30); All ratios are kept as one molecule; the ratio is named in each row; also called αBc:DAox; DAox-modified αBc
B1: binds [1].

B2: αB-crystallin (natural protein, human, UniProt P02511 1-175, looked up)
chain: MDIAIHHPWIRRPFFPFHSPSRLFDQFFGEHLLESDLFPTSTSLSPFYLRPPSFLRAPSWFDTGLSEMRLEKDRFSVNLDVKHFSPEELKVKVLGDVIEVHGKHEERQDEHGFISREFHRKYRIPADVDPLTITSSLSSDGVLTVNGPRKQVSGPERTIPITREEKPAVTAAPKK
notes: αB-crystallin (HspB5), human small heat-shock protein; monomeric subunit mass 20.2 kDa; Lys174 and Lys175 at the extreme C-terminus; Heterogeneous large oligomer in solution; also called HspB5; native αBc; source: expressed and purified as previously described [9,40,41]
B2: binds [2].

B3: methylated αBc reacted with DAox (natural protein, human, UniProt P02511 1-175, looked up)
chain: MDIAIHHPWIRRPFFPFHSPSRLFDQFFGEHLLESDLFPTSTSLSPFYLRPPSFLRAPSWFDTGLSEMRLEKDRFSVNLDVKHFSPEELKVKVLGDVIEVHGKHEERQDEHGFISREFHRKYRIPADVDPLTITSSLSSDGVLTVNGPRKQVSGPERTIPITREEKPAVTAAPKK
modifications: dimethylation of all lysine residues (and the amino terminus), confirmed by mass spectrometry; then modified by oxidized dopamine (DAox)
notes: αB-crystallin (HspB5), human small heat-shock protein; same protein as m1; Reacted with a 0, 1, 5, 7.5, 10 or 20 molar excess of DA; also called lysine-dimethylated αBc
B3: binds [3].
